The values below come from PMC12021056, “MISP Suppresses Ferroptosis via MST1/2 Kinases to Facilitate YAP Activation in Non‐Small Cell Lung Cancer” (Advanced Science, 2025).

The target of assay [1] is T1, His-MST2 (aa279-491) (UniProt Q13188 279-491).
T1 construct: MST2 kinase, amino acids 279-491 (holds the C-terminal SARAH domain); also called SARAH domain of MST2; source: E. coli BL21, purified (Ni-NTA agarose)
T1 sequence (looked up): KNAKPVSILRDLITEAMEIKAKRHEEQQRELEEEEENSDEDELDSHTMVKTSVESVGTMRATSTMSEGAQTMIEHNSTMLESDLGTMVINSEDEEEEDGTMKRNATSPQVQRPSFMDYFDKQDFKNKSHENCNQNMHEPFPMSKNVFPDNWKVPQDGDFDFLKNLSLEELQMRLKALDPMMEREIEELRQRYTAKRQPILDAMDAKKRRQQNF
Kind of assay: pull-down; 2 µg GST or GST-MISP (aa352-524) incubated with 2 µg His-MST1 (aa301-487) or His-MST2 (aa279-491) for 12 h at 4 °C; SDS-PAGE and Coomassie blue staining. As to conditions: both partners purified.

The target of assay [2] is T2, His-MST1 (aa301-487) (UniProt Q13043 301-487).
T2 construct: MST1 kinase, amino acids 301-487 (holds the C-terminal SARAH domain, aa431-487); also called SARAH domain of MST1; source: E. coli BL21, purified (Ni-NTA agarose)
T2 sequence (looked up): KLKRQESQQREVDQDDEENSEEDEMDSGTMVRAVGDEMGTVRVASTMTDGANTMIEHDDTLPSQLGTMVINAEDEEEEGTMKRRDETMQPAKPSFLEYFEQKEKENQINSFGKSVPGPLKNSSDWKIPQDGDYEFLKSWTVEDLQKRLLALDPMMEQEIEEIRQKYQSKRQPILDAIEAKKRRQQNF
The description is as above. As to conditions: both partners purified.

B1: GST-MISP (aa352-524) (domain or fragment, UniProt Q8IVT2 352-524, looked up)
chain: QRDIVQETQREEDHRREGLHVGRASTPDWVSEGPQPGLRRALSSDSILSPAPDARAADPAPEVRKVNRIPPDAYQPYLSPGTPQLEFSAFGAFGKPSSLSTAEAKAATSPKATMSPRHLSESSGKPLSTKQEASKPPRGCPQANRGVVRWEYFRLRPLRFRAPDEPQQAQVPH
notes: source: E. coli BL21, purified (glutathione S-transferase agarose)
Regarding B1, the binding result in assay [1] and in assay [2] was “binds” in each case.
